Measurements taken from publication PMC7946963, “Phosphorylation regulates the binding of autophagy receptors to FIP200 Claw domain for selective autophagy initiation” (Nature Communications, 2021).
Square brackets hold non-standard residues; d marks the D form. Ends that are not written are not given here. * marks the point of attachment. FITC = O=C1OC2(c3ccc(O)cc3Oc3cc(O)ccc32)c2ccc(NC(=S)*)cc21; pS = N[C@@H](COP(=O)(O)O)C(=O)O

B4: FIP200 Claw domain (residues 1490–1594) (domain or fragment, human, UniProt Q8TDY2 1490-1594, looked up)
chain: SRHSEKIAIRDFQVGDLVLIILDERHDNYVLFTVSPTLYFLHSESLPALDLKPGEGASGASRRPWVLGKVMEKEYCQAKKAQNRFKVPLGTKFYRVKAVSWNKKV
notes: 15N-labelled in the NMR titrations; also called RB1CC1; source: E. coli BL21 (DE3), purified (Ni-NTA, size-exclusion chromatography); not shown: Trx (inferred from the cleaved 3C protease site), N-terminal, cleaved; His6, N-terminal, cleaved
B7: nano-FIP200(1450–1594) (domain or fragment, human, UniProt Q8TDY2 1450-1594, looked up)
chain: HMLSEEKQRIMLLERTLQLKEEENKRLNQRLMSQSMSSVSSRHSEKIAIRDFQVGDLVLIILDERHDNYVLFTVSPTLYFLHSESLPALDLKPGEGASGASRRPWVLGKVMEKEYCQAKKAQNRFKVPLGTKFYRVKAVSWNKKV
notes: FIP200 (RB1CC1), human, residues 1450-1594; the construct of the analytical gel filtration with Optineurin fragments; also called FIP200 Claw domain; source: E. coli BL21 (DE3), purified (Ni-NTA, size-exclusion chromatography)

Tests used:
nano-FIP200(1450–1594) = target: B7; assay: SEC; analytical gel filtration of purified proteins and their mixtures; Superose 200 increase 10/300 GL; 20 mM Tris-HCl pH 7.9, 100 mM NaCl, 1 mM DTT; conditions: both partners purified
[1] = target: the molecule itself; assay: AUC; sedimentation velocity, 142,250 x g, 20 °C; FIP200(1490–1594) alone, CCPG1 FIR2 S104E alone, and FIP200(1490–1594) mixed with excess CCPG1 FIR2 S104E
[2] = target: B4; assay: fluorescence polarisation; FITC-labeled peptide (~0.25 μM) titrated with increasing amounts of protein; 20 mM Tris pH 7.9, 100 mM NaCl, 1 mM DTT, 25 °C; one-site binding model; conditions: both partners purified
[3] = target: T1, p-Optineurin(33–209), Optineurin(33–209) phosphorylated by TBK1 (human, UniProt Q96CV9 33-209, phosphoserine at 177 (the major site phosphorylated by TBK1, by mass spectrometry)); assay: SEC; analytical gel filtration of purified proteins and their mixtures; Superose 200 increase 10/300 GL; 20 mM Tris-HCl pH 7.9, 100 mM NaCl, 1 mM DTT; conditions: both partners purified
T1 construct: S177 is called the major site; other phosphorylated sites are not excluded; source: E. coli BL21 (DE3), purified; phosphorylated in vitro by purified Trx-TBK1(1–674) from Sf9 cells

GABARAP = target: T2, GABARAP (UniProt O95166 1-117); assay: fluorescence polarisation; FITC-labeled peptide (~0.25 μM) titrated with increasing amounts of protein; 20 mM Tris pH 7.9, 100 mM NaCl, 1 mM DTT, 25 °C; one-site binding model; conditions: both partners purified
T2 construct: GABARAP, one of the six mammalian ATG8 family proteins; construct not described; also called ATG8 family protein; mammalian ATG8 orthologue; source: bacteria (15N-labelled form grown in M9 minimal medium); construct not described

[4] = target: B4; assay: AUC; sedimentation velocity, 142,250 x g, 20 °C; FIP200(1490–1594) alone, CCPG1 FIR2 S104E alone, and FIP200(1490–1594) mixed with excess CCPG1 FIR2 S104E; conditions: both partners purified

T2 sequence (O95166 whole entry): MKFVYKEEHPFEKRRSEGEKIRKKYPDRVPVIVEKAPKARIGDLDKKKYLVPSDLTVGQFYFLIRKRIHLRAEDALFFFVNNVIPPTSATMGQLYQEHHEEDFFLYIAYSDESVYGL
T1 sequence (Q96CV9 33-209): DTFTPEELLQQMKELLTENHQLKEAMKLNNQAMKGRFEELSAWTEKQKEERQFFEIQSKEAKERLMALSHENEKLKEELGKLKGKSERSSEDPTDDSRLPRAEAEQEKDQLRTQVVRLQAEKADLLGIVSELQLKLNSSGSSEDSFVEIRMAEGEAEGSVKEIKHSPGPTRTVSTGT

B1: Optineurin(169–185) S177E (phosphomimetic mutant) (domain or fragment, human, UniProt Q96CV9 169-185, looked up)
chain: NSSGSSEDEFVEIRMAE
notes: also called S177E mutant of Optineurin LIR; source: E. coli BL21 (DE3), purified (Ni-NTA, size-exclusion chromatography)
nano-FIP200(1450–1594)
  binding result: binds

B2: Optineurin(169–185) S177E/F178Y (domain or fragment, human, UniProt Q96CV9 169-185, looked up)
chain: NSSGSSEDEYVEIRMAE
notes: also called F178 of the S177E mutant of Optineurin LIR replaced by Tyr; source: E. coli BL21 (DE3), purified (Ni-NTA, size-exclusion chromatography)
nano-FIP200(1450–1594)
  binding result: binds

B3: Optineurin(169–185) S177E/F178W (domain or fragment, human, UniProt Q96CV9 169-185, looked up)
chain: NSSGSSEDEWVEIRMAE
notes: also called F178 of the S177E mutant of Optineurin LIR replaced by Trp; source: E. coli BL21 (DE3), purified (Ni-NTA, size-exclusion chromatography)
nano-FIP200(1450–1594)
  binding result: binds

## B4
[1]
  stoichiometry N: 2

B5: S177-phosphorylated Optineurin LIR synthetic peptide (p-Optineurin LIR) (peptide)
peptide: SSED[pS]FVEIRMAE
modifications: also: N-terminal FITC in fluorescence polarisation assay only
notes: source: synthetic peptide, bought: ChinaPeptides (>98% pure)
[2]
  Kd: ~12 µM

B6: Optineurin LIR synthetic peptide (un-phosphorylated) (peptide)
peptide: {FITC}-SSEDSFVEIRMAE
notes: Optineurin, human, LIR region; also called un-phosphorylated Optineurin LIR peptide; source: synthetic peptide, bought: ChinaPeptides (>98% pure)
[2]
  Kd: ~307 µM

## B7
[3]
  binding result: binds

B8: CCPG1 FIR2 synthetic peptide (residues 99–113) (peptide)
peptide: TASDDSDIVTLEPPK
modifications: also: FITC on N-terminus in fluorescence polarisation assay only
notes: The results speak of a 13-residue peptide; also called un-phosphorylated CCPG1 FIR2; wild-type CCPG1 FIR2; source: synthetic peptide, bought: ChinaPeptides (>98% pure)
GABARAP
  Kd: ~27 µM
[2]
  binding result: binds

B9: CCPG1 FIR2 S104E (phosphomimetic mutant, residues 99–113) (domain or fragment, human, UniProt Q9ULG6 99-113, looked up)
chain: TASDDEDIVTLEPPK
notes: CCPG1, human, FIR2, residues 99-113; also called phosphomimetic S104E mutant of CCPG1 FIR2; source: E. coli BL21 (DE3), purified (Ni-NTA, size-exclusion chromatography)
[4]
  stoichiometry N: 1 CCPG1 FIR2 S104E per FIP200 chain (2:2)
